Reference: patent publication US20130281374A1

Molecular target: T1, human GIP receptor (human), P48546
T1 chain: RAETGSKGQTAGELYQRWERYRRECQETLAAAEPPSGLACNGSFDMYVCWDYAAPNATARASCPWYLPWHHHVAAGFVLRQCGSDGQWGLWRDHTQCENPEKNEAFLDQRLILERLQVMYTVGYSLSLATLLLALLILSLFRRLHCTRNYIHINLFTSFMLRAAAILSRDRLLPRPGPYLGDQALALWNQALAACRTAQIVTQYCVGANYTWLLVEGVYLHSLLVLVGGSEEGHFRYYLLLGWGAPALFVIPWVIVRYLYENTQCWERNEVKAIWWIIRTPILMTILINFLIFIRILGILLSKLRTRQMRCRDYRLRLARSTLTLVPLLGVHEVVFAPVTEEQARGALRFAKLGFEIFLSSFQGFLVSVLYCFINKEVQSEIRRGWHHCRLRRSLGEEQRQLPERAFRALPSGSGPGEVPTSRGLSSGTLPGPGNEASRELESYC
Test: 125I-GIP displacement, HEK-GIPR membranes

B1: 0601GIP4843 (peptide)
peptide: HGEGTLISDYSIAMDKIHQQDFVNWLLAQKPKKIRYS
modifications: not checked
- % Inh 10 nM: 3%
